This assay has as its target T1, Mec1 (yeast (budding yeast), UniProt P38111 1-2368).
T1 construct: Mec1, yeast orthologue of mammalian ATR; 2,368 amino acids as the introduction says; The Mec1 subunit of m1, for the rows of two subunits; also called Mec1^ATR; yeast orthologue of ATR; source: yeast, overexpressed from pBL904 together with Ddc2, purified as the Mec1·Ddc2 complex (IgG-Sepharose, HRV 3C cleavage)
The assay is described as follows: SEC; Mec1·Ddc2 on Superose 6 HR 10/30, 0.3 ml/min; 50 mM HEPES-KOH pH 7.4, 200 mM KCl, 10% glycerol, 0.1% Tween 20, 0.01% Nonidet P-40, 1 mM EDTA, 1 mM EGTA, 2 mM DTT; size against Bio-Rad gel filtration standards; peak fractions on SDS-PAGE. Conditions: both partners purified. A general note: Size exclusion chromatography separates by hydrodynamic size, large species first.

T1 sequence (P38111 whole entry): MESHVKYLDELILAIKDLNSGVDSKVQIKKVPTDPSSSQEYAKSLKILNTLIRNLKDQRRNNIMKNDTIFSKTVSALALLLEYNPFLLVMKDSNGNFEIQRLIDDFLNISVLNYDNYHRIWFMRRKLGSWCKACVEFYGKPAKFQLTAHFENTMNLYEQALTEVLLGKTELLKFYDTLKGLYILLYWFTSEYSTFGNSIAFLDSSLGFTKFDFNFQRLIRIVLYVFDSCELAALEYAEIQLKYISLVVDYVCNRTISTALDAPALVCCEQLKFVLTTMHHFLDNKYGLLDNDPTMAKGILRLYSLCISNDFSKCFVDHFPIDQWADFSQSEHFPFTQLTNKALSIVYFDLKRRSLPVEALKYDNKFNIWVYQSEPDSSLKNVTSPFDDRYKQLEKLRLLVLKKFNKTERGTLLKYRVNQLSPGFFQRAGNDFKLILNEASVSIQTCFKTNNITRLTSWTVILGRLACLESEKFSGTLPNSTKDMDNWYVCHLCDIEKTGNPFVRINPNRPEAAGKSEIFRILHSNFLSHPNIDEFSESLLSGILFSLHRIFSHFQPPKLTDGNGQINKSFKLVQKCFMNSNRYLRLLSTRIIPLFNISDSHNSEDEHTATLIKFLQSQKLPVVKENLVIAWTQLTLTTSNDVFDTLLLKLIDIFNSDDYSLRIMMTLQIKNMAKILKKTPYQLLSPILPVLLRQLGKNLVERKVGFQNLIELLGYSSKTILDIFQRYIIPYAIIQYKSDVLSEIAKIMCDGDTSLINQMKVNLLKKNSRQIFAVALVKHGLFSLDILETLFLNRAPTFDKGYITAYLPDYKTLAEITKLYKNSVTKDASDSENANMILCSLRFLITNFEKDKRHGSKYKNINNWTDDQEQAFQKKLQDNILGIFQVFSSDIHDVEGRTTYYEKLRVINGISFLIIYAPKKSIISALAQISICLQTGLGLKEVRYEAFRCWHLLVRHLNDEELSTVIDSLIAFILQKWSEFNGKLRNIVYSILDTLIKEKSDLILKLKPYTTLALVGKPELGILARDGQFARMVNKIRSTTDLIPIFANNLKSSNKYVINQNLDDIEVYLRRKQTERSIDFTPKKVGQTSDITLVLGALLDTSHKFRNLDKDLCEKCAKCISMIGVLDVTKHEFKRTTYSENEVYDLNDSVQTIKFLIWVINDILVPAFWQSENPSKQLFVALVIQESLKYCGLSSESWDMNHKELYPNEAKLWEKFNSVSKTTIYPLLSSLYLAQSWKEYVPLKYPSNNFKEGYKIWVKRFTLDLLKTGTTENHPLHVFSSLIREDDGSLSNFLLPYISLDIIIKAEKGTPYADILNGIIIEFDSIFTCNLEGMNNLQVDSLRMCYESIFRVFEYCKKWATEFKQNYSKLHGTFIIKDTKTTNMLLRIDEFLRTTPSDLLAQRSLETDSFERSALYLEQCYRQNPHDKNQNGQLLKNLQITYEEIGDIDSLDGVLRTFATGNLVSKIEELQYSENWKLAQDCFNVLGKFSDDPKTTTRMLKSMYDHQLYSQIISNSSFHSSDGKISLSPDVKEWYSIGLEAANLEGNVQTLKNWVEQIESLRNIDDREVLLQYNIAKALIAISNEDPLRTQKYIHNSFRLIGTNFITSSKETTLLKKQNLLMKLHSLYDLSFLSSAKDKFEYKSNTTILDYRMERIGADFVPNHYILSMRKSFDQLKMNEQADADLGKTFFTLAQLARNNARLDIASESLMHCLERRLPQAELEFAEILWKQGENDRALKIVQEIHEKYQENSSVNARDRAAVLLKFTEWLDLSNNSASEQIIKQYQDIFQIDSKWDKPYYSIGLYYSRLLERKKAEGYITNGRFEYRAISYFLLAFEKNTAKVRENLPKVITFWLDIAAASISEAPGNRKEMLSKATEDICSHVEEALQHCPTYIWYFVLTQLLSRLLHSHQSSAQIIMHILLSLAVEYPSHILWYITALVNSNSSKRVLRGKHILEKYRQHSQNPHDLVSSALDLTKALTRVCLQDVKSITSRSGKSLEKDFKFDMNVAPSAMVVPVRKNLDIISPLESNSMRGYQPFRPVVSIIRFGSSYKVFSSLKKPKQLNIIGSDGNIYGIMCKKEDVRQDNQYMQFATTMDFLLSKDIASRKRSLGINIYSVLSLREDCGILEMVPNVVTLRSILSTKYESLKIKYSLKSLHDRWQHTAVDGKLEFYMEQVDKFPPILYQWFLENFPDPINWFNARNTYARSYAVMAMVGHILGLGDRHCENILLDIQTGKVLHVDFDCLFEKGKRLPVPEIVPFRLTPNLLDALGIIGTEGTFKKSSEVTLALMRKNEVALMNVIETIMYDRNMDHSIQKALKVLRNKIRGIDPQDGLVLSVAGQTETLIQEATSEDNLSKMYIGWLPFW

B1: Ddc2 (natural protein, yeast (budding yeast), UniProt Q04377 1-747, looked up)
chain: MRRETVGEFSSDDDDDILLELGTRPPRFTQIPPSSAALQTQIPTTLEVTTTTLNNKQSKNDNQLVNQLNKAQGEASMLRDKINFLNIEREKEKNIQAVKVNELQVKHLQELAKLKQELQKLEDEKKFLQMEARGKSKREVITNVKPPSTTLSTNTNTITPDSSSVAIEAKPQSPQSKKRKISDNLLKKNMVPLNPNRIIPDETSLFLESILLHQIIGADLSTIEILNRLKLDYITEFKFKNFVIAKGAPIGKSIVSLLLRCKKTLTLDRFIDTLLEDIAVLIKEISVHPNESKLAVPFLVALMYQIVQFRPSATHNLALKDCFLFICDLIRIYHHVLKVPIHESNMNLHVEPQIFQYELIDYLIISYSFDLLEGILRVLQSHPKQTYMEFFDENILKSFEFVYKLALTISYKPMVNVIFSAVEVVNIITSIILNMDNSSDLKSLISGSWWRDCITRLYALLEKEIKSGDVYNENVDTTTLHMSKYHDFFGLIRNIGDNELGGLISKLIYTDRLQSVPRVISKEDIGMDSDKFTAPIIGYKMEKWLLKLKDEVLNIFENLLMIYGDDATIVNGEMLIHSSKFLSREQALMIERYVGQDSPNLDLRCHLIEHTLTIIYRLWKDHFKQLREEQIKQVESQLIMSLWRFLVCQTETVTANEREMRDHRHLVDSLHDLTIKDQASYYEDAFEDLPEYIEEELKMQLNKRTGRIMQVKYDEKFQEMARTILESKSFDLTTLEEADSLYISMGL
notes: Ddc2 (also called Lcd1 or Pie1), yeast orthologue of ATRIP; The Ddc2 subunit of m1, for the rows of two subunits; also called Lcd1; Pie1; source: yeast, overexpressed from pBL904 together with Mec1, purified as the Mec1·Ddc2 complex (IgG-Sepharose, HRV 3C cleavage)
For B1, the binding result is “binds”.

Values taken from publication PMC4919432, “The Dimeric Architecture of Checkpoint Kinases Mec1^ATR and Tel1^ATM Reveal a Common Structural Organization*” (The Journal of Biological Chemistry, 2016).
